This is an account of results in doi:10.1101/2023.01.17.524225 (bioRxiv, 2023).

Primed or numbered codes have the meaning given here. No end group written: not given here. FITC′ = not defined here

This assay addresses T1, GID4 (aa 116-300) (human, UniProt Q8IVV7 116-300).
T1 sequence: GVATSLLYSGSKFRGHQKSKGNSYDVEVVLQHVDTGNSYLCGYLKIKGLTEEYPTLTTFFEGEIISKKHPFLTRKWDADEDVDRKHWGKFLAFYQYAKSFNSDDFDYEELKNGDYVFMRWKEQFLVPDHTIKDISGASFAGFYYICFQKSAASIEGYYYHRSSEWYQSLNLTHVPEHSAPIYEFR
The experiment in a line: fluorescence polarisation. On the technique in general: Polarisation of emitted light reports the rotation of a fluorescent probe.

With PGLWKS-{FITC′} [C-terminally FITC-labelled PGLWKS peptide], the binding result was “binds”.
